Experimental findings from the supplement of paper PMC11316812 are described below.

For one series, the system named is hTERT-HMEC. The series is described as follows: percentage of EdU-negative (G0-arrested) nuclei per well, 72 h; higher = more G0 arrest. The note with it: reference: sequence is the full UniProt precursor, the tested protein was the secreted form or ectodomain.
In another series the test system is MCF7. The series is described as above. The note with it: reference: sequence is the full UniProt precursor, the tested protein was the secreted form or ectodomain.
[1] abbreviates: protein concentration 0.0145714 µM.
The mark [2] stands for this setting: protein concentration 0.145714 µM.
[3] abbreviates: protein concentration 0.0357143 µM.
The mark [4] stands for this setting: protein concentration 0.357143 µM.
Where [5] appears, read: protein concentration 0.0225 µM.
[6] abbreviates: protein concentration 0.0182857 µM.
Where [7] appears, read: protein concentration 0.182857 µM.
The mark [8] stands for this setting: protein concentration 0.025165 µM.
Where [9] appears, read: protein concentration 0.25165 µM.
The mark [10] stands for this setting: protein concentration 0.03125 µM.
[11] abbreviates: protein concentration 0.3125 µM.
The mark [12] stands for this setting: protein concentration 0.02525 µM.
The mark [13] stands for this setting: protein concentration 0.2525 µM.

± gives the standard deviation of the averaged measurements.
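Note: secreted proteins added to cultured cells, EdU pulse at the end, nuclei found by Hoechst imaging, EdU status from nuclear versus surrounding ring intensity ratio, PBS as neutral control.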

Turning to “MNPTLGLAIFLAVLLTVKGLLKPSFSPRNYKALSEVQGWKQRMAAKELARQNMDLGFKLLKKLAFYNPGRNIFLSPLSISTAFSMLCLGAQDSTLDEIKQGFNFRKMPEKDLHEGFHYIIHELTQKTQDLKLSIGNTLFIDQRLQPQRKFLEDAKNFYSAETILTNFQNLEMAQKQINDFISQKTHGKINNLIENIDPGTVMLLANYIFFRARWKHEFDPNVTKEEDFFLEKNSSVKVPMMFRSGIYQVGYDDKLSCTILEIPYQKNITAIFILPDEGKLKHLEKGLQVDTFSRWKTLLSRRVVDVSVPRLHMTGTFDLKKTLSYIGVSKIFEEHGDLTKIAPHRSLKVGEAVHKAELKMDERGTEGAAGTGAQTLPMETPLVVKIDKPYLLLIYSEKIPSVLFLGKIVNPIGK [Q8IW75]”, the “percentage of EdU-negative” value in the series with hTERT-HMEC (setting [1]) amounted to 6.15 ± 0.62%; with hTERT-HMEC (setting [2]) it was 15.6 ± 0.67%; in the series on MCF7 (setting [1]), 26.6 ± 0.27%; in the series on MCF7 (setting [2]), 29.1 ± 1.5%.
As to “MNPTLILAAFCLGIASATLTFDHSLEAQWTKWKAMHNRLYGMNEEGWRRAVWEKNMKMIELHNQEYREGKHSFTMAMNAFGDMTSEEFRQVMNGFQNRKPRKGKVFQEPLFYEAPRSVDWREKGYVTPVKNQGQCGSCWAFSATGALEGQMFRKTGRLISLSEQNLVDCSGPQGNEGCNGGLMDYAFQYVQDNGGLDSEESYPYEATEESCKYNPKYSVANDTGFVDIPKQEKALMKAVATVGPISVAIDAGHESFLFYKEGIYFEPDCSSEDMDHGVLVVGYGFESTESDNNKYWLVKNSWGEEWGMGGYVKMAKDRRNHCGIASAASYPTV”, the “percentage of EdU-negative” value in the series with hTERT-HMEC (setting [3]) came to 4.81 ± 0.59%; with hTERT-HMEC (setting [4]), 5.42 ± 0.42%; in the series with MCF7 (setting [3]), 27.8 ± 1.3%; with MCF7 (setting [4]), 24 ± 1.1%.
For “MNQKTILVLLILAVITIFALVCVLLVGRGGDGGEPSQLPHCPSVSPSAQPWTHPGQSQLFADLSREELTAVMRFLTQRLGPGLVDAAQARPSDNCVFSVELQLPPKAAALAHLDRGSPPPAREALAIVFFGRQPQPNVSELVVGPLPHPSYMRDVTVERHGGPLPYHRRPVLFQEYLDIDQMIFNRELPQASGLLHHCCFYKHRGRNLVTMTTAPRGLQSGDRATWFGLYYNISGAGFFLHHVGLELLVNHKALDPARWTIQKVFYQGRYYDSLAQLEAQFEAGLVNVVLIPDNGTGGSWSLKSPVPPGPAPPLQFYPQGPRFSVQGSRVASSLWTFSFGLGAFSGPRIFDVRFQGERLVYEISLQEALAIYGGNSPAAMTTRYVDGGFGMGKYTTPLTRGVDCPYLATYVDWHFLLESQAPKTIRDAFCVFEQNQGLPLRRHHSDLYSHYFGGLAETVLVVRSMSTLLNYDYVWDTVFHPSGAIEIRFYATGYISSAFLFGATGKYGNQVSEHTLGTVHTHSAHFKVDLDVAGLENWVWAEDMVFVPMAVPWSPEHQLQRLQVTRKLLEMEEQAAFLVGSATPRYLYLASNHSNKWGHPRGYRIQMLSFAGEPLPQNSSMARGFSWERYQLAVTQRKEEEPSSSSVFNQNDPWAPTVDFSDFINNETIAGKDLVAWVTAGFLHIPHAEDIPNTVTVGNGVGFFLRPYNFFDEDPSFYSADSIYFRGDQDAGACEVNPLACLPQAAACAPDLPAFSHGGFSHN”, the “percentage of EdU-negative” value in the series with hTERT-HMEC (setting [1]) came to 5.32 ± 0.3%; in the series on hTERT-HMEC (setting [2]) it was 6.82 ± 0.15%; in the series with MCF7 (setting [1]) it was 22.8 ± 0.3%; in the series on MCF7 (setting [2]), 26.8 ± 0.78%.
With “MNQVTIQWDAVIALYILFSWCHGGITNINCSGHIWVEPATIFKMGMNISIYCQAAIKNCQPRKLHFYKNGIKERFQITRINKTTARLWYKNFLEPHASMYCTAECPKHFQETLICGKDISSGYPPDIPDEVTCVIYEYSGNMTCTWNAGKLTYIDTKYVVHVKSLETEEEQQYLTSSYINISTDSLQGGKKYLVWVQAANALGMEESKQLQIHLDDIVIPSAAVISRAETINATVPKTIIYWDSQTTIEKVSCEMRYKATTNQTWNVKEFDTNFTYVQQSEFYLEPNIKYVFQVRCQETGKRYWQPWSSLFFHKTPETVPQVTSKAFQHDTWNSGLTVASISTGHLTSDNRGDIGLLLGMIVFAVMLSILSLIGIFNRSFRTGIKRRILLLIPKWLYEDIPNMKNSNVVKMLQENSELMNNNSSEQVLYVDPMITEIKEIFIPEHKPTDYKKENTGPLETRDYPQNSLFDNTTVVYIPDLNTGYKPQISNFLPEGSHLSNNNEITSLTLKPPVDSLDSGNNPRLQKHPNFAFSVSSVNSLSNTIFLGELSLILNQGECSSPDIQNSVEEETTMLLENDSPSETIPEQTLLPDEFVSCLGIVNEELPSINTYFPQNILESHFNRISLLEK [Q5VWK5]”, the “percentage of EdU-negative” value in the series with hTERT-HMEC (setting [5]) turned out to be 6.46 ± 1.6%; in the series with hTERT-HMEC (protein concentration 0.225 µM) it was 15.8 ± 1.4%; with MCF7 (setting [5]), 23.7 ± 1.1%; in the series with MCF7 (protein concentration 0.225 µM) it was 29.2 ± 0.53%.
Regarding “MNRFLLLMSLYLLGSARGTSSQPNELSGSIDHQTSVQQLPGEFFSLENPSDAEALYETSSGLNTLSEHGSSEHGSSKHTVAEHTSGEHAESEHASGEPAATEHAEGEHTVGEQPSGEQPSGEHLSGEQPLSELESGEQPSDEQPSGEHGSGEQPSGEQASGEQPSGEHASGEQASGAPISSTSTGTILNCYTCAYMNDQGKCLRGEGTCITQNSQQCMLKKIFEGGKLQFMVQGCENMCPSMNLFSHGTRMQIICCRNQSFCNKI”, the “percentage of EdU-negative” value with hTERT-HMEC (setting [3]) came out at 6.06 ± 0.83%; in the series with hTERT-HMEC (setting [4]), 9.78 ± 0.68%; in the series on MCF7 (setting [3]), 24.76 ± 0.1%; in the series with MCF7 (setting [4]) it was 27.1 ± 1.2%.
For the sequence “MNVLLGSVVIFATFVTLCNASCYFIPNEGVPGDSTRKCMDLKGNKHPINSEWQTDNCETCTCYETEISCCTLVSTPVGYDKDNCQRIFKKEDCKYIVVEKKDPKKTCSVSEWII”, the “percentage of EdU-negative” value was found to be 5.28 ± 0.77% with hTERT-HMEC (setting [5]), 5.95 ± 1.1% in the series with hTERT-HMEC (protein concentration 0.225 µM), 25.8 ± 1.8% with MCF7 (setting [5]) and 24.5 ± 0.81% in the series on MCF7 (protein concentration 0.225 µM).
For the sequence “MNWHLPLFLLASVTLPSICSHFNPLSLEELGSNTGIQVFNQIVKSRPHDNIVISPHGIASVLGMLQLGADGRTKKQLAMVMRYGVNGVGKILKKINKAIVSKKNKDIVTVANAVFVKNASEIEVPFVTRNKDVFQCEVRNVNFEDPASACDSINAWVKNETRDMIDNLLSPDLIDGVLTRLVLVNAVYFKGLWKSRFQPENTKKRTFVAADGKSYQVPMLAQLSVFRCGSTSAPNDLWYNFIELPYHGESISMLIALPTESSTPLSAIIPHISTKTIDSWMSIMVPKRVQVILPKFTAVAQTDLKEPLKVLGITDMFDSSKANFAKITTGSENLHVSHILQKAKIEVSEDGTKASAATTAILIARSSPPWFIVDRPFLFFIRHNPTGAVLFMGQINKP”, the “percentage of EdU-negative” value with hTERT-HMEC (setting [6]) stood at 4.86 ± 0.67%; in the series with hTERT-HMEC (setting [7]), 9.81 ± 1%; in the series with MCF7 (setting [6]), 26.98 ± 0.12%; in the series with MCF7 (setting [7]), 27.93 ± 0.17%.
“MPACRLGPLAAALLLSLLLFGFTLVSGTGAEKTGVCPELQADQNCTQECVSDSECADNLKCCSAGCATFCSLPNDKEGSCPQVNINFPQLGLCRDQCQVDSQCPGQMKCCRNGCGKVSCVTPNF”: the “percentage of EdU-negative” value in the series with hTERT-HMEC (setting [8]) stood at 4.52 ± 0.38%; in the series on hTERT-HMEC (setting [9]), 4.9 ± 0.49%; with MCF7 (setting [8]), 25.2 ± 0.76%; in the series with MCF7 (setting [9]) it was 25.3 ± 0.99%.
“MPAFNRLFPLASLVLIYWVSVCFPVCVEVPSETEAVQGNPMKLRCISCMKREEVEATTVVEWFYRPEGGKDFLIYEYRNGHQEVESPFQGRLQWNGSKDLQDVSITVLNVTLNDSGLYTCNVSREFEFEAHRPFVKTTRLIPLRVTEEAGEDFTSVVSEIMMYILLVFLTLWLLIEMIYCYRKVSKAEEAAQENASDYLAIPSENKENSAVPVEE [Q9NY72]”: the “percentage of EdU-negative” value in the series on hTERT-HMEC (setting [10]) was 4.7 ± 0.6%; in the series with hTERT-HMEC (setting [11]), 4.76 ± 0.95%; with MCF7 (setting [10]), 25.4 ± 0.68%; with MCF7 (setting [11]) it was 25.4 ± 1.8%.
Regarding “MPAGRAARTCALLALCLLGAGAQDFGPTRFICTSVPVDADMCAASVAAGGAEELRSSVLQLRETVLQQKETILSQKETIRELTAKLGRCESQSTLDPGAGEARAGGGRKQPGSGKNTMGDLSRTPAAETLSQLGQTLQSLKTRLENLEQYSRLNSSSQTNSLKDLLQSKIDELERQVLSRVNTLEEGKGGPRNDTEERVKIETALTSLHQRISELEKGQKDNRPGDKFQLTFPLRTNYMYAKVKKSLPEMYAFTVCMWLKSSATPGVGTPFSYAVPGQANELVLIEWGNNPMEILINDKVAKLPFVINDGKWHHICVTWTTRDGVWEAYQDGTQGGSGENLAPYHPIKPQGVLVLGQEQDTLGGGFDATQAFVGELAHFNIWDRKLTPGEVYNLATCSTKALSGNVIAWAESHIEIYGGATKWTFEACRQIN”, the “percentage of EdU-negative” value with hTERT-HMEC (setting [12]) was found to be 5.12 ± 0.18%; in the series on hTERT-HMEC (setting [13]), 4.43 ± 0.47%; in the series on MCF7 (setting [12]) it was 26.9 ± 2.1%; in the series with MCF7 (setting [13]) it was 24.2 ± 4.3%.
Take “MPAGRRGPAAQSARRPPPLLPLLLLLCVLGAPRAGSGAHTAVISPQDPTLLIGSSLLATCSVHGDPPGATAEGLYWTLNGRRLPPELSRVLNASTLALALANLNGSRQRSGDNLVCHARDGSILAGSCLYVGLPPEKPVNISCWSKNMKDLTCRWTPGAHGETFLHTNYSLKYKLRWYGQDNTCEEYHTVGPHSCHIPKDLALFTPYEIWVEATNRLGSARSDVLTLDILDVVTTDPPPDVHVSRVGGLEDQLSVRWVSPPALKDFLFQAKYQIRYRVEDSVDWKVVDDVSNQTSCRLAGLKPGTVYFVQVRCNPFGIYGSKKAGIWSEWSHPTAASTPRSERPGPGGGACEPRGGEPSSGPVRRELKQFLGWLKKHAYCSNLSFRLYDQWRAWMQKSHKTRNQDEGILPSGRRGTARGPAR”: the “percentage of EdU-negative” value in the series with hTERT-HMEC (protein concentration 0.006 µM) stood at 4.58 ± 0.39%; with hTERT-HMEC (protein concentration 0.06 µM) it was 5.19 ± 0.85%; with MCF7 (protein concentration 0.006 µM), 25.3 ± 0.23%; in the series with MCF7 (protein concentration 0.06 µM), 28.9 ± 1.2%.
“MPAIAVLAAAAAAWCFLQVESRHLDALAGGAGPNHGNFLDNDQWLSTVSQYDRDKYWNRFRDDDYFRNWNPNKPFDQALDPSKDPCLKVKCSPHKVCVTQDYQTALCVSRKHLLPRQKKGNVAQKHWVGPSNLVKCKPCPVAQSAMVCGSDGHSYTSKCKLEFHACSTGKSLATLCDGPCPCLPEPEPPKHKAERSACTDKELRNLASRLKDWFGALHEDANRVIKPTSSNTAQGRFDTSILPICKDSLGWMFNKLDMNYDLLLDPSEINAIYLDKYEPCIKPLFNSCDSFKDGKLSNNEWCYCFQKPGGLPCQNEMNRIQKLSKGKSLLGAFIPRCNEEGYYKATQCHGSTGQCWCVDKYGNELAGSRKQGAVSCEEEQETSGDFGSGGSVVLLDDLEYERELGPKDKEGKLRVHTRAVTEDDEDEDDDKEDEVGYIW”: the “percentage of EdU-negative” value in the series with hTERT-HMEC (protein concentration 0.015 µM) is 5.37 ± 0.53%; in the series on hTERT-HMEC (protein concentration 0.15 µM), 10.4 ± 1.6%; in the series on MCF7 (protein concentration 0.015 µM) it was 24.9 ± 1%; with MCF7 (protein concentration 0.15 µM) it was 26.5 ± 1.8%.
